Data as given in article PMC3581401 (The Journal of Biological Chemistry, 2013).
Like-named read-outs stand apart in the source and are kept apart here.

B1: IT4VAR13 DBLβ domain (domain or fragment, Plasmodium falciparum (IT4 isolate), UniProt A3R6S0 811-1201, looked up)
chain: ACTGKDGNNERFKIGTEWKIGEKVETTDTDAYIPPRRQHMCTSNLENLNVSWVTEDGKAIHSLLGDVQLAAKMDADEIIKRYKKHNTLTDPIQQKDQESICRAVRYSFADLGDIIRGRDLWEHGDQTKLQGHLQIIFGKIKEEIKKKHPGINGNDKYKGDEKNNPPYKQLREDWWEANRHQVWRAMQCELKNLKKSNGDCHYNSRGTPLDDYIPQRLRWMVEWAEWFCKMQSQEYDKLMKQCSQCMSKGGDCRKGDVNCTSCEQACEEYKKKIKKWEKQWNKIKDKYEELYLQAKIAFAGTSFGGGDRDYQQMVHFFKELQKVTGDTTLGDTTSPYSTAAGYIHQEGHVDECTEQTQFCKNRNGNTASGKEDDNYTFKDPPPKYANACKCD

Key:
[1] = target: ICAM-1 domains 1 to 5, Fc tag removed (human) (UniProt P05362); test: AUC
ICAM-1 domains 1 to 5, Fc tag removed (human), sequence (P05362 28-485): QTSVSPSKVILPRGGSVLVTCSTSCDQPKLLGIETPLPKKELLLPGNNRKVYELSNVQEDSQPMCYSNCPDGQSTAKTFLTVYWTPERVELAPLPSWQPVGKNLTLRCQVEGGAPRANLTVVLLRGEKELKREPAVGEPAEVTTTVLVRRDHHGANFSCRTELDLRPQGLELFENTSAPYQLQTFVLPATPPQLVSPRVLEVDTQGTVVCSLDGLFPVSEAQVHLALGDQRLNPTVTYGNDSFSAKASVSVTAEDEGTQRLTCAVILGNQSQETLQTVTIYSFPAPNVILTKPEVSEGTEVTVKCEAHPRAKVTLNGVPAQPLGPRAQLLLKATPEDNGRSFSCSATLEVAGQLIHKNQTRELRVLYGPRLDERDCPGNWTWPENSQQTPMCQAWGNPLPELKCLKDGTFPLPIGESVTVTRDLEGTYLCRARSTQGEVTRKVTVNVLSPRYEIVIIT

[2] = target: ICAM-1 domains 1 to 5 fused to human IgG1 Fc (human) (UniProt P05362); test: SPR
ICAM-1 domains 1 to 5 fused to human IgG1 Fc (human), sequence (P05362 28-485): as above

ICAM-1 domains 1 and 2 = ICAM-1 domains 1 and 2 (human, UniProt P05362 28-212); test: SAXS
ICAM-1 domains 1 and 2, sequence (P05362 28-212): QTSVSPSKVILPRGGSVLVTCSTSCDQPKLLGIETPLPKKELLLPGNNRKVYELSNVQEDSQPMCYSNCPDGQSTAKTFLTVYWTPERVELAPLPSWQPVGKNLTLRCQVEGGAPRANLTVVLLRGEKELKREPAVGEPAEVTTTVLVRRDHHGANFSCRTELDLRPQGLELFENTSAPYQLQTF

[3] = target: ICAM-1 domains 1 to 5, Fc tag removed (human, UniProt P05362 28-485); test: AUC
ICAM-1 domains 1 to 5, Fc tag removed, sequence (P05362 28-485): as the sequence (P05362 28-485) above

AUC = target: the molecule itself; test: AUC
[4] = target: T1, ICAM-1 domains 1 to 5 fused to human IgG1 Fc (human, UniProt P05362 28-485); test: SPR
T1 sequence (P05362 28-485): as above

[5] = target: T1, ICAM-1 domains 1 to 5 fused to human …; test: SPR; remark: listed apart in the source
[6] = target: T1, ICAM-1 domains 1 to 5 fused to human …; test: SPR; remark: listed apart in the source

Molecule | stoichiometry N [2] | Kd [2] | koff [2] | kon [2] | other results
IT4VAR13 ectodomain (PfEMP1 from the var13 gene of the P. falciparum IT4 isolate), A3R6S0 1-2691 | 1 |  |  |  | stoichiometry N [1]: 1
IT4VAR16 DBLβ domain (domain or fragment) |  | 51.1 nM | 0.00208 s⁻¹ | 41000 M⁻¹ s⁻¹ | 
IT4VAR27 DBLβ domain (domain or fragment) |  | 6.5 nM | 0.00842 s⁻¹ | 130000 M⁻¹ s⁻¹ | 
IT4VAR31 DBLβ domain (domain or fragment) |  | 144 nM | 0.00145 s⁻¹ |  | 
IT4VAR41 DBLβ domain (domain or fragment) | 1.09 |  | 0.00831 s⁻¹ |  | 
B1 |  |  |  |  | stoichiometry N (ICAM-1 domains 1 and 2): 1; stoichiometry N [3]: 1; stoichiometry N (AUC): 2; Kd [4]: 2.8 nM; Kd [5]: 2.6 nM; koff [5]: 0.0009 s⁻¹; kon [5]: 350000 M⁻¹ s⁻¹; kon [6]: 35000 M⁻¹ s⁻¹; stoichiometry N [6]: 1.16
